The record followed here is PMC2800238.

This series deals with nsp12 (RdRp) (SARS-CoV Frankfurt-1, UniProt P0C6X7 4370-5301). In words: EMSA. (In general: Mobility shift assays separate free from complexed probe on a gel.)

B1: SAV557R ssRNA (ssRNA)
RNA: GCUAUGUGAGAUUAAGUUAU
The Kd is the concentration at which binding is half-saturated. High values mean lower affinity, low ones higher affinity. The molecule B1 came in with a Kd of 100 nM.

B2: SAV557R/SAV481R primer-template duplex (dsRNA)
RNA 1: GCUAUGUGAGAUUAAGUUAU
RNA 2: UUUUUUUUUUAUAACUUAAUCUCACAUAGC
As to B2, the Kd is 130 nM. The Kd values of the last two molecules are within 1.5-fold of each other.
